The values that follow are results of earlier work, collected in publication PMC10769511.

One may read the Kd as the concentration at which binding is half-saturated.

The target of the data set is histone H3K4me3 peptide (Homo sapiens) (UniProt P68431).

PHF2 PHD-Jumonji (from UniProt O75151): the Kd is 160 nM.
